From article PMC3012607, “From an electrophoretic mobility shift assay to isolated transcription factors: a fast genomic-proteomic approach”

T1: 2488prp DBD (Xpp1 candidate) (Hypocrea jecorina (Trichoderma reesei), UniProt G0RQ24 395-492)
T1 sequence: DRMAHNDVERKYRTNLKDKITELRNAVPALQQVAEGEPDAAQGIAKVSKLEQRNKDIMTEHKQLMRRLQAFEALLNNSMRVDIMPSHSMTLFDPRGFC

T2: 2488prp (Xpp1 candidate) (Hypocrea jecorina (Trichoderma reesei), UniProt G0RQ24 1-492)
T2 sequence: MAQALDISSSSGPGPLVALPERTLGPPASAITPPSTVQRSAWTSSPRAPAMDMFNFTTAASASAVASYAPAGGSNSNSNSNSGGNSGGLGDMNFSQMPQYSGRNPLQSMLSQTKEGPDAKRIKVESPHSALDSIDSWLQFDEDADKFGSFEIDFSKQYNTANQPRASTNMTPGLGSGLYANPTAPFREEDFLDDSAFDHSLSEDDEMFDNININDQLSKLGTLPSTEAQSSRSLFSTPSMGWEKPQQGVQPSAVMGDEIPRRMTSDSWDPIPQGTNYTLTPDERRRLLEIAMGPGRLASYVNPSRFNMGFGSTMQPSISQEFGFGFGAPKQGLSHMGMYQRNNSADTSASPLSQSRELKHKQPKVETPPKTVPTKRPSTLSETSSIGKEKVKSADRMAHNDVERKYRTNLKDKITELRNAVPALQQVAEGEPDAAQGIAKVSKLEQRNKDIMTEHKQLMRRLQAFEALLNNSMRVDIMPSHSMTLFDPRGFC


What was measured:
[1] = target: T1, 2488prp DBD (Xpp1 candidate); assay: EMSA; EMSA: 100 ng DBD or 60 ng IVT protein with 15 ng FAM probe, 15 min on ice, binding buffer per cited ref [41]; pull-down binding mix: 200 mM KCl, 200 ng/uL poly(dIdC), 200 ng/uL CKT067/CKT068, 8 mM spermidine, on ice; conditions: protein: recombinant; tags: GST removed by thrombin; chain copies: 2; label: 5'-FAM on strand 1; blunt
2488prp (Xpp1 candidate) = target: T2, 2488prp (Xpp1 candidate); assay: as above; conditions: protein: ivt; chain copies: 2; label: 5'-FAM on strand 1; blunt

Binder	binding result [1]	binding result (2488prp (Xpp1 candidate))
Lpxyn2 (dsDNA) DNA 1: TGATGAAAGGAGAACAACTTCTAGACTGGGTAAATTGGTCAATGGCCAGCCGCTC DNA 2: GAGCGGCTGGCCATTGACCAATTTACCCAGTCTAGAAGTTGTTCTCCTTTCATCA	binds	binds
Lpxyn2 M (dsDNA) DNA 1: TGATGAAAGGAGAACAACGGAGAGACTGGGTAAATTGGTCAATGGCCAGCCGCTC DNA 2: GAGCGGCTGGCCATTGACCAATTTACCCAGTCTCTCCGTTGTTCTCCTTTCATCA	no binding	no binding
